Experimental data as given in patent US8012929B2, “Peptides directed for diagnosis and treatment of amyloid-associated diseases” (Tel Aviv University Future Technology Development L.P., priority 2002, dated 2011).
“Also recorded” adds a separate entry of the source. Blank lines part the entries; values can stand above or below the substance they belong to. Square brackets hold non-standard residues; d marks the D form. Ends that are not written are not given here. Aib = CC(C)(N)C(=O)O

Columns and labels:
[1] = Transmission electron microscopy of wild-type and Aib modified hIAPP peptides; type: physicochemical; conditions: 5 mM peptide, aged 4 days (wt) or 10 days (modified)
Protocol: Peptide solutions—freshly prepared stock solutions were prepared by dissolving the lyophilized form of the peptides in dimethyl sulfoxide (DMSO) at a concentration of 100 mM. To avoid any pre-aggregation, fresh stock solutions were prepared for each experiment. […] Transmission Electron Microscopy—a 10 μL sample of 5 mM peptide solution in 10 mM Tris buffer, pH 7.2 aged for 4 days (for wt peptides) and for 10 days (for modified peptides) was placed on 400-mesh copper grids (SPI supplies, West Chester Pa.) covered by carbon-stabilized Formvar film. After 1 minute, excess fluid was removed, and the grid was then negatively stained with 2% uranyl acetate in water for another 2 minutes. Samples were viewed in a JEOL 1200EX electron microscope operating at 80 kV.

[2] = Congo Red staining and birefringence of wild-type and Aib substituted IAPP peptides; type: physicochemical; conditions: 5 mM peptide aged for 10 days
Protocol: Congo Red Staining and Birefringence—A 10 μL suspension of 5 mM peptide solution in 10 mM Tris buffer, pH 7.2 aged for 10 days was allowed to dry overnight on a glass microscope slide. Staining was performed by the addition of a 10 μL suspension of saturated Congo Red (CR) and NaCl in 80% ethanol (v/v) solution. The solution was filtered via 0.2 μm filter. The slide was then dried for a few hours. Birefringence was determined with a SZX-12 Stereoscope (Olympus, Hamburg, Germany) equipped with cross polarizers. 100× magnification is shown.

[3] = FT-IR of Aib-modified IAPP peptide fragments; type: physicochemical; conditions: two week aged peptide solutions
Protocol: Fourier Transform Infrared Spectroscopy—Infrared spectra were recorded using a Nicolet Nexus 470 FT-IR spectrometer with a DTGS detector. Samples of two week aged peptide solutions, were suspended on a CaF2 plate and dried by vacuum. The peptide deposits were resuspended with D2O and subsequently dried to form thin films. The resuspension procedure was repeated twice to ensure maximal hydrogen to deuterium exchange. The measurements were taken using a 4 cm^−1 resolution and 2000 scans averaging. The transmittance minima values were determined by the OMNIC analysis program (Nicolet).

[4] = Kinetic aggregation assay (turbidity at 405 nm) of IAPP peptide fragment and alanine mutants; type: physicochemical; conditions: 2 mM peptide, 10 mM Tris pH 7.2, 2% DMSO, room temperature
Protocol: To study self-assembly of the IAPP peptide derived fragments, aggregation and insolubilization kinetics were monitored using turbidity measurements at 405 nm.
Kinetic aggregation assay—Fresh peptide stock solutions were prepared by dissolving lyophilized form of the peptides in DMSO, a disaggregating solvent, at a concentration of 100 mM. To avoid any pre-aggregation, fresh stock solutions were prepared prior to each and every experiment. Peptide stock solutions were diluted into assay buffer and plated in 96-well plates as follows: 2 μl of peptides stock solutions were added to 98 μl of 10 mM Tris pH 7.2, resulting in a 2 mM final concentration of the peptide in the presence of 2% DMSO. Turbidity data was measured at 405 nm. A buffer solution including 2% DMSO was used as a blank. Turbidity was measured at room temperature over several time points.

[5] = Aggregate mean particle size by dynamic light scattering; type: physicochemical; conditions: 100 μM peptide, 1% DMSO, 10 mM Tris pH 7.2
Protocol: Therefore, the average size of the aggregates, formed by the various peptides, was determined using dynamic light scattering (DLS) experiments.
Method—Freshly prepared peptide stock solutions at a concentration of 10 mM were diluted in 10 mM Tris buffer pH 7.2 and further filtrated through a 0.2 μm filter to a final concentration of 100 μM peptide and 1% DMSO. Particle size measurement was conducted with a laser-powered ALV-NIBS/HPPS non-invasive backscattering instrument. Autocorrelation data was fitted using the ALV-NIBS/HPPS software to derive average apparent hydrodynamic diameters.

[6] = Congo red binding assay with polarization microscopy (Example 4); type: physicochemical; conditions: peptide solutions incubated for four days
Protocol: Congo red (CR) staining combined with polarization microscopy was utilized to test amyloidogenicity of the peptides of the present invention. […] Invest. 31:232-8; Lansbury (1992) Biochemistry 31:6865-70]. […] Staining was effected by the addition of 1 mM CR in 10 mM Tris buffer pH 7.2 followed by a 1 minute incubation. To remove excess CR, slides were rinsed with double-distilled water and dried. Saturated CR solutions solubilized in 80% ethanol (v/v) were used for poorly aggregating peptides. In such cases, staining was effected without rinsing. Birefringence was determined using a WILD Makroskop m420 (×70) equipped with a polarizing stage.

[7] = Negative staining electron microscopy of fibril formation (Example 5); type: physicochemical; conditions: 2 mM peptide incubated overnight
Protocol: Method—Peptide solutions (2 mM peptide in 10 mM Tris buffer pH 7.2), were incubated overnight at room temperature. Fibrils formation was assessed using 10 μl sample placed on 200-mesh copper grids, covered with carbon-stabilized formvar film (SPI Supplies, West Chester Pa.). Following 20-30 seconds of incubation, excess fluid was removed and the grids were negatively stained with 2% uranyl acetate in water. Samples were viewed in a JEOL 1200EX electron microscope operating at 80 kV.

MBP-IAPP1-37 = biological target: T1, MBP-IAPP1-37 (Homo sapiens, UniProt P10997); test: Binding of MBP-IAPP to membrane-spotted peptide arrays; conditions: membrane-bound hIAPP decamers, 10 μg/ml MBP-IAPP1-37, densitometry, semiquantitative
T1 construct: incubated in the presence of 10 μg/ml MBP-IAPP1-37 at 4° C. for 12 h; made in house; host or cells: E. coli BL21(DE3)
T1 sequence (P10997 34-70 limits assumed): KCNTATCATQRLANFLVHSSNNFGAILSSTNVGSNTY
Excerpt: IAPP peptide array construction—Decamers corresponding to consecutive overlapping sequences of hIAPP1-37 SEQ ID NOs. 61-88) were synthesizes on a cellulose membrane matrix using the SPOT technique (Jerini AG, Berlin, Germany). The peptides were covalently bound to a Whatman 50 cellulose support (Whatman, Maidstone, England) via the C-terminal amino-acids. N-terminal acetylation was used for peptide scanning because of higher stability to peptide degradation, and better representation of the native recognition motif.
Thereafter, cellulose membrane was incubated in the presence of 10 μg/ml MBP-IAPP1-37 at 4° C. for 12 h in the same blocking buffer. The cellulose membrane was then washed repeatedly with 0.05% Tween 20 in TBS. […] HRP-conjugated goat anti mouse antibodies (Jackson Laboratories, USA) were used as a secondary antibody. Immunoblots were developed using the Renaissance western blot Chemiluminescence Reagent (NEN, USA) according to Manufacturer's instructions and signal was quantified using densitometry. Regeneration of the cellulose membrane for reuse was carried out by sequential washing with Regeneration buffer I including 62.5 mM Tris, 2% SDS, 100 Mm 2-mercaptoethanol, pH 6.7, and Regeneration buffer II including 8 M urea, 1% SDS, 0.1% 2-mercaptoethanol. Efficiency of the washing steps was monitored by contacting the membrane with the chemiluminescence reagent, as described.
To determine the specific role of the phenylalanine residue in IAPP-self assembly, a membrane-based binding assay was preformed in order to systematically explore the molecular determinants that facilitate the ability of the full-length hIAPP to recognize the “basic amyloidogenic unit”. To this end, the ability of MBP-IAPP (see Example 6) to interact with an array of peptides in which the phenylalanine position was systematically altered (SEQ ID NOs. 91-110), was addressed.

[8] = Kinetic aggregation assay, turbidity at 405 nm (Example 8); type: physicochemical; conditions: hIAPP 22-29 analogues incubated for 1 week
hIAPP1-37 = biological target: T2, hIAPP1-37 (Homo sapiens, UniProt P10997); test: Thioflavin T fluorescence assay of hIAPP fibrillization (sodium acetate buffer); type: biochemical; conditions: 4 μM hIAPP1-37, 40 μM inhibitor, 10 mM sodium acetate pH 6.5
T2 construct: purchased CalBiochem (La Jolla Calif., USA)
T2 sequence (P10997 34-70 limits assumed): T1 sequence (P10997 34-70 limits assumed)
Protocol: Thioflavin T fluorescence assay—hIAPP fibrillization was monitored by Thioflavin T dye binding assay. hIAPP1-37 stock solution was diluted to a final concentration of 4 μM in 10 mM sodium acetate buffer (pH 6.5) with or without inhibitors (40 μM), and a final concentration of HFIP of 1% (vol). Immediately after dilution, sample was centrifuged for 20 minutes in 20,000×g at 4° C. and the supernatant fraction was used for fluorescence measurements. In every measurement ThT was added to a 1 ml sample at a final concentration of 3 μM and measurements were effected by using Perkin-Elmer (excitation 450 nm, 2.5 nm slit; emission 480 nm 10 nm slit). Background was subtracted from all samples.

Substance: ANFLVH
- structures by electron microscopy [1]: formed fibrillar structures
- Congo Red birefringence [2]: typical yellow-green birefringence
- secondary structure by FT-IR [3]: typical of β-sheet spectra

Substance: Aib-NF-Aib-VH ([Aib]NF[Aib]VH)
- structures by electron microscopy [1]: no fibrillar structures were evident
- Congo Red birefringence [2]: no birefringence
- secondary structure by FT-IR [3]: characteristic to a random coil conformation

Substance: N1A: alanine-scan mutant of the hIAPP peptide fragment, SEQ ID NO: 2 (AFGAILSS)
- kinetics of aggregation (turbidity at 405 nm) [4]: higher kinetics of aggregation
- apparent hydrodynamic diameter of the structures formed [5]: Smaller structures
- Congo red binding and birefringence [6]: bound CR and exhibited the characteristic green/gold birefringence
- fibril structures by electron microscopy [7]: tangled net-like structures

- binding to MBP-hIAPP1-37 (MBP-IAPP1-37): no binding
Substance: hIAPP1-10: membrane-spotted decamer of hIAPP residues 1-10 (KCNTATCATQ)

Substance: NAGAILSS
- endpoint turbidity [8]: lower extent

Substance: ANFLV
- structures by electron microscopy [1]: formed fibrillar structures
- Congo Red birefringence [2]: typical yellow-green birefringence
- secondary structure by FT-IR [3]: typical of β-sheet spectra

Substance: L6A: leucine to alanine mutant of the hIAPP peptide fragment, SEQ ID NO: 6 (NFGAIASS)
- kinetics of aggregation (turbidity at 405 nm) [4]: reduced the kinetics of aggregation but did not abolish it completely
- apparent hydrodynamic diameter of the structures formed [5]: Smaller structures
- Congo red binding and birefringence [6]: bound CR and exhibited rare but characteristic birefringence
- fibril structures by electron microscopy [7]: lower in comparison to that of wild type; also recorded: More distinct structures and longer fibrils, albeit less frequent

Substance: NVGAILSS
- endpoint turbidity [8]: lower extent

- inhibition of IAPP fibrillization (ThT fluorescence at plateau) (hIAPP1-37): inhibition potential
Substance: D-Phe-D-Pro [EG29]

- binding to MBP-hIAPP1-37 (MBP-IAPP1-37): no binding
Substance: hIAPP3-12: membrane-spotted decamer of hIAPP residues 3-12 (NTATCATQRL)

Substance: Aib-NF-Aib-V ([Aib]NF[Aib]V)
- structures by electron microscopy [1]: no fibrillar structures were evident
- Congo Red birefringence [2]: no birefringence
- secondary structure by FT-IR [3]: characteristic to a random coil conformation

- binding to MBP-hIAPP1-37 (MBP-IAPP1-37): third binding spot
Substance: hIAPP2-11: membrane-spotted decamer of hIAPP residues 2-11 (CNTATCATQR)

Substance: G3A: alanine-scan mutant of the hIAPP peptide fragment, SEQ ID NO: 4 (NFAAILSS)
- kinetics of aggregation (turbidity at 405 nm) [4]: essentially the same profile as that of wild type peptide
- apparent hydrodynamic diameter of the structures formed [5]: very similar hydrodynamic diameters
- Congo red binding and birefringence [6]: bound CR and exhibited the characteristic green/gold birefringence
- fibril structures by electron microscopy [7]: tangled net-like structures

Substance: Gln-Lys-Leu-Val-Phe-Phe [EG05, reference compound]
- inhibition of IAPP fibrillization (ThT fluorescence at plateau) (hIAPP1-37): effective inhibition of IAPP fibrillization

- inhibition of IAPP fibrillization (ThT fluorescence at plateau) (hIAPP1-37): inhibition potential
Substance: D-Pro-Aib [EG28]

Substance: NIGAILSS
- endpoint turbidity [8]: some low degree of turbidity

Substance: NLGAILSS
- endpoint turbidity [8]: lower extent
